Paper PMC7255614

Assays:
[1] = target: fibronectin (UniProt P02751); assay: ELISA; wells coated with 10 μg/ml purified fibronectin in 0.05 M Na2CO3 pH 9.0; 0.03125-2 μM GST or GST-tagged OspC variants, 1 hr at ambient temperature; goat anti-GST and HRP-conjugated anti-goat IgG; estimated KD from a fit of OD405
[2] = target: fibronectin (UniProt P02751); assay: SPR; Biacore 3000; fibronectin on a CM5 chip; 0-500 nM untagged OspC variants injected at 10 μl/min, 25°C; 1:1 Langmuir model; KD from the average koff divided by kon of each run

Chain of fibronectin (P02751 32-2477): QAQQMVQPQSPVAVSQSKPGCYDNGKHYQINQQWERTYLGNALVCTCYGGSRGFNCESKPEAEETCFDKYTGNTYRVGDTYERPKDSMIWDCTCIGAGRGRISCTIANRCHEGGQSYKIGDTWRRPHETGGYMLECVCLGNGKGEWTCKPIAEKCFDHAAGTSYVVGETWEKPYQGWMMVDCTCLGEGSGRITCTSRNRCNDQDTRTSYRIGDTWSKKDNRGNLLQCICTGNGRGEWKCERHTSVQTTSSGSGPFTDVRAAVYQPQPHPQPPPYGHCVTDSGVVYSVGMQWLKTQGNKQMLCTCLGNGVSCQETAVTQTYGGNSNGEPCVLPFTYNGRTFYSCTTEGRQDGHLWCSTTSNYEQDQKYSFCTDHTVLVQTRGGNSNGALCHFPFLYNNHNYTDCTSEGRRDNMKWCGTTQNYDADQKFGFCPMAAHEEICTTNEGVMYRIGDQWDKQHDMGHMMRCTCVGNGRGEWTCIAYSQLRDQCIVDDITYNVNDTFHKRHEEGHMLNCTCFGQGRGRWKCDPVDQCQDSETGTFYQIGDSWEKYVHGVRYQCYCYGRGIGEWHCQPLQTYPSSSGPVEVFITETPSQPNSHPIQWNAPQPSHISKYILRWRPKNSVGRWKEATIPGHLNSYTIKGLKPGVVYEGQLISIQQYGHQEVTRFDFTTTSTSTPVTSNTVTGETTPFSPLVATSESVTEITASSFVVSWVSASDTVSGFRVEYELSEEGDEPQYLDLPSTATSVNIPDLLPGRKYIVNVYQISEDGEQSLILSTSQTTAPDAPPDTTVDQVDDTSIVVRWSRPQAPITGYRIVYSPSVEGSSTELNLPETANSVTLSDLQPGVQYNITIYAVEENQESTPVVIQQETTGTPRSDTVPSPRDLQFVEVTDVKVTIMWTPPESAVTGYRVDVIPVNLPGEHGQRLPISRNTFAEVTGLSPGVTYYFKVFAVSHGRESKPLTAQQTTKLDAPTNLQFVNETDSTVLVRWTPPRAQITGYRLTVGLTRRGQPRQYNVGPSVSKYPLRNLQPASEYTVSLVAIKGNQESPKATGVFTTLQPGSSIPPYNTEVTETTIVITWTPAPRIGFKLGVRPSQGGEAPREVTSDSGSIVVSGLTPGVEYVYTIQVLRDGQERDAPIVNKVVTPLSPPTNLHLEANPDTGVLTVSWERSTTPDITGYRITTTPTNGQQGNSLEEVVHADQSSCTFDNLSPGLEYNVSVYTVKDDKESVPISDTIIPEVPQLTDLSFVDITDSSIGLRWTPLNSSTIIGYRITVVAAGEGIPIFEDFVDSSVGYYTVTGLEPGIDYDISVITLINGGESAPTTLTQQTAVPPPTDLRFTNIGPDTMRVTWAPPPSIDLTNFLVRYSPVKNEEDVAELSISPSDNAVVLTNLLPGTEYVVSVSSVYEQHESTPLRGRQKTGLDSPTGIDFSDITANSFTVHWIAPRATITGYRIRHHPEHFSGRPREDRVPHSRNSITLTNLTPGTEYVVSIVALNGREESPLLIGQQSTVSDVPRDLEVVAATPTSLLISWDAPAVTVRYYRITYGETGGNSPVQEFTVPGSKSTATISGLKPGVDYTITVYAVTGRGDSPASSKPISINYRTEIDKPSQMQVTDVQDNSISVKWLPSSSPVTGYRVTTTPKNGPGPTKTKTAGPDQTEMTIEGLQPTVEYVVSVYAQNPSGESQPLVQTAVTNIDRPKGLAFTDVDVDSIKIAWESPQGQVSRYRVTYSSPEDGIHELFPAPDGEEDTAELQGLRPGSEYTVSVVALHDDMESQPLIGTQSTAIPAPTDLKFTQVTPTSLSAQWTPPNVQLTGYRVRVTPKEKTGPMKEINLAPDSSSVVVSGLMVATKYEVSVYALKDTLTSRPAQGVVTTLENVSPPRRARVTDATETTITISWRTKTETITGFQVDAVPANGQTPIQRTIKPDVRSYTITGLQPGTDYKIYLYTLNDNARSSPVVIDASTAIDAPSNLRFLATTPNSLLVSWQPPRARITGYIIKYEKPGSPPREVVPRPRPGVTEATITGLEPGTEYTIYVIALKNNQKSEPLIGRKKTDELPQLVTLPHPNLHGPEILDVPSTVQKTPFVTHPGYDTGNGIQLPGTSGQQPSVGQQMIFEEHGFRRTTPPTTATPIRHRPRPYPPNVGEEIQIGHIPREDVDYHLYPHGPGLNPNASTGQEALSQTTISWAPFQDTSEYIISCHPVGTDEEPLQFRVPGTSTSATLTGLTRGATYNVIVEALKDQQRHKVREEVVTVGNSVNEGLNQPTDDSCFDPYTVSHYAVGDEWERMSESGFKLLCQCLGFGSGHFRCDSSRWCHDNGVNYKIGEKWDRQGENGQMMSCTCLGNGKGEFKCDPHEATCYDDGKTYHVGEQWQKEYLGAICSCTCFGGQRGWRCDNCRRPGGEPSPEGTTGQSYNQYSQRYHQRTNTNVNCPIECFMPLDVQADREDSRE

“GST-OspC_(N40-D10/E9) (natural protein; other documents disagree on this pair)” was tested. Which Kd [1] did it give?
The Kd was 350 nM.

With OspC297, untagged (natural protein) as the substance, how does the Kd [2] read?
The Kd was 1750 nM.

And the koff [2]?
Its koff is 0.06 s⁻¹.

And the kon [2]?
Its kon is 36800 M⁻¹ s⁻¹.
